Consider 15 molecules from paper PMC8287954, “Assembly of higher-order SMN oligomers is essential for metazoan viability and requires an exposed structural motif present in the YG zipper dimer” (Nucleic Acids Research, 2021).

Numbering of substitutions follows the chain as printed. Names may count otherwise. “And” between values parts separate entries of the source, which are not always exact repeats. Equal values may be shown once.

B1: Schizosaccharomyces pombe SMN•Gemin2 complex (complex)
chain 1: MDQSQKEVWDDSELRNAFETALHEFKKYHSIEAKGGVSDPDSRLDGEKLISAARTEESISKLEEGEQMINQQTETTLEGDTHIQQFADNKGLSDEKPETRAAETHQEFMEVPPPIRGLTYDETYKKLIMSWYYAGYYTGLAEGLAKSEQRKD
chain 2: MPSKRKRNPLQYQTSGSLDEETNQRSAFPQIDNNSASESLEYDIPLDGLDYLATVREEARKLVPFVAARREPETRETIPLRKLEIEAGKKSFDPFLRYLLNIIDKEGERLEQYMESSSLDASILPKNLQQWRVYIEHKAPCWAILAVVDLATVLEILESLSSWLEKDAIDLQSQWIFCFCYKLPELLNGEDISTLRSVLKSLRSTHTSFPALQMSASALQAVLVYRYGQKDLFQT
notes: S. pombe SMN (Smn1p); S. pombe Gemin2; also called spSMN•G2; wild-type Smn1p; source: bacterial co-expression, purified as previously described (24)
B2: spSMN(A145Q)•Gemin2 (complex, Schizosaccharomyces pombe)
chain 1: B1 chain 1 with A145Q
chain 2: B1 chain 2
notes: S. pombe SMN (Smn1p); S. pombe Gemin2; also called spA145Q; source: recombinant; yeast SMN•G2 complexes purified as previously described (24)
B3: spSMN(G143V)•Gemin2 (complex, Schizosaccharomyces pombe)
chain 1: B1 chain 1 with G143V
chain 2: B1 chain 2
notes: S. pombe SMN (Smn1p); S. pombe Gemin2; also called spG143V; source: recombinant; yeast SMN•G2 complexes purified as previously described (24)
B4: spSMN(A141Q)•Gemin2 (complex, Schizosaccharomyces pombe)
chain 1: B1 chain 1 with A141Q
chain 2: B1 chain 2
notes: S. pombe SMN (Smn1p); S. pombe Gemin2; also called spA141Q; source: recombinant; yeast SMN•G2 complexes purified as previously described (24)
B5: spSMN(Y137H)•Gemin2 (complex, Schizosaccharomyces pombe)
chain 1: B1 chain 1 with Y137H
chain 2: B1 chain 2
notes: S. pombe SMN (Smn1p); S. pombe Gemin2; also called spY137H; source: recombinant; yeast SMN•G2 complexes purified as previously described (24)
B6: Hs^1-275-GCN4(IL) chimera•Gemin2 (complex)
chain 1: not shown
chain 2: MAWVPAESAVEELMPRLLPVEPCDLTEGFDPSVPPRTPQEYLRRVQIEAAQCPDVVVAQIDPKKLKRKQSVNISLSGCQPAPEGYSPTLQWQQQQVAQFSTVRQNVNKHRSHWKSQQLDSNVTMPKSEDEEGWKKFCLGEKLCADGAVGPATNESPGIDYVQIGFPPLLSIVSRMNQATVTSVLEYLSNWFGERDFTPELGRWLYALLACLEKPLLPEAHSLIRQLARRCSEVRLLVDSKDDERVPALNLLICLVSRYFDQRDLADEPS
B7: Drosophila melanogaster SMN (natural protein, UniProt Q9VV74 1-226, looked up)
chain: MSDETNAAVWDDSLLVKTYDESVGLAREALARRLADSTNKREEENAAAAEEEAGEISATGGATSPEPVSFKVGDYARATYVDGVDYEGAVVSINEEKGTCVLRYLGYENEQEVLLVDLLPSWGKRVRREQFLIAKKDEDEQLSRPKASAGSHSKTPKSSRRSRISGGLVMPPMPPVPPMIVGQGDGAEQDFVAMLTAWYMSGYYTGLYQGKKEASTTSGKKKTPKK
notes: Drosophila melanogaster SMN (dmSMN); In the reconstitution the HFS tag was cut off with Ulp1 after dmGemin2 was added; also called dmSMN; source: E. coli BL21(DE3), purified (Ni-NTA after lysis in guanidine•HCl, urea wash)
B8: MBP-dmSMN^186-220 (domain or fragment, Drosophila melanogaster, UniProt Q9VV74 186-220, looked up)
chain: GAEQDFVAMLTAWYMSGYYTGLYQGKKEASTTSGK
notes: The SEC-SAXS methods print 189-220 for this fusion; also called MBP-dmSMN^189–220; source: expressed from pETDuet at 37°C, purified (amylose resin, Superdex-200); not shown: MBP, N-terminal, kept
B9: MBP-hsSMN^252-294(C289A, N283C) (domain or fragment, human, UniProt Q16637 252-294, looked up)
chain: DSLDDADALGSMLISWYMSGYHTGYYMGFRQCQKEGRASHSLN
notes: human SMN YG box, residues 252-294; also called hsSMN^N283C; source: E. coli BL21(DE3), purified (amylose resin); not shown: MBP, N-terminal, kept
B10: MBP-hsSMN^252-294(C289A, Y277C) (domain or fragment, human, UniProt Q16637 252-294, looked up)
chain: B9 chain with Y26C, C32N
notes: human SMN YG box, residues 252-294; also called hsY277C; source: E. coli BL21(DE3), purified (amylose resin); not shown: MBP, N-terminal, kept
B11: MBP-hsSMN^252-294(C289A, S262C) (domain or fragment, human, UniProt Q16637 252-294, looked up)
chain: B9 chain with S11C, C32N
notes: human SMN YG box, residues 252-294; source: E. coli BL21(DE3), purified (amylose resin); not shown: MBP, N-terminal, kept
B12: MBP-hsSMN^252-294(C289A, T274C) (domain or fragment, human, UniProt Q16637 252-294, looked up)
chain: B9 chain with T23C, C32N
notes: human SMN YG box, residues 252-294; also called hsT274C; source: E. coli BL21(DE3), purified (amylose resin); not shown: MBP, N-terminal, kept
B13: MBP-hsSMN^252-294(C289A, R281C) (domain or fragment, human, UniProt Q16637 252-294, looked up)
chain: B9 chain with R30C, C32N
notes: as for B11
B14: MBP-spSMN YG box (112–152) A141Y, A145C (domain or fragment, Schizosaccharomyces pombe, UniProt Q09808 112-152, looked up)
chain: PPPIRGLTYDETYKKLIMSWYYAGYYTGLYEGLCKSEQRKD
notes: S. pombe SMN, residues 112-152; SMN residues fused to the penultimate Thr of E. coli MBP with a Gly-Ser linker; also called A145C mutant with an A141Y substitution; source: E. coli BL21(DE3), purified (amylose resin); not shown: MBP, N-terminal, kept
B15: Drosophila melanogaster Gemin2 (natural protein, UniProt Q9VVX0 1-245, looked up)
chain: MQHEPEDQTFQLQALEICEPDSSFDPQKPPESGEEYLMHMFYERKRCPAVVTKRSSKIRNNTGNTTLEMLDNPELPPFKCLLPTPEWRDEQVKSFQAARSQVLVLRKELANNNYDQSGEPPLTSDQEKWKEFCRNQQPLLSTLLHLTQNDLELLLEMLSKWLQDPNTTVDLLHDVWLARWLYATLVCLHLPLEPHVFSTLRYIARTCIHLRNQLKEDEVQRAAPYNLLLTLTVQVFAQNDFKDYI
notes: Drosophila melanogaster Gemin2 (dmGemin2); also called dmGemin2; dmG2; source: E. coli BL21(DE3), purified (Ni-NTA, chitin beads, Superdex 200)

Data set [1] concerns the molecule itself. The data set is described as follows: SEC-MALS; Superdex 200 10/300 GL, 0.5 ml/min, room temperature (20°C), 50 mM HEPES-NaOH pH 7.5, 250 mM NaCl, 5 mM DTT; self-association of the SMN•G2 unit, (SMN•G2)n. (SEC sorts molecules by how far they enter the pores of the column.)
Data set [2] concerns the molecule itself. The data set is described as above. This is another data set of the same source.
The target in data set [3] is B15. The data set is described as follows: SEC; complex reconstituted from separately purified proteins, two molar excess of dmGemin2, HFS tag cut with Ulp1, second Ni-NTA pass, Superdex 200 16/60 at 20°C, 20 mM Na/KPO4 pH 7.0, 300 mM NaCl, 1 mM DTT. The note with it: both partners purified.
Data set [4] deals with the molecule itself. Nature of the data set: AUC; sedimentation velocity, 20 mM HEPES–NaOH pH 7.5, 300 mM NaCl, 0.1 mM TCEP, 0.16–1.0 mg/ml, 40 000 rpm; 25°C and 4°C (smaller species at 4°C).
Data set [5] deals with the molecule itself. Nature of the data set: not stated; shown in Supplementary Figure S2; method not given.
Data set [6] deals with the molecule itself. The data set is described as follows: cross-linking; disulfide cross-linking of single-cysteine MBP-YG box fusions, 5 μM, 20 mM Tris-HCl pH 7.4, 200 mM NaCl, 1 mM EDTA, 10 mM maltose, 160 μM diamide, 1 h, 20°C; non-reducing SDS-PAGE.
Data set [7] concerns the molecule itself. Nature of the data set: AUC; sedimentation equilibrium, 4°C, 20 mM Tris-HCl pH7.4, 200 mM NaCl, 5 mM DTT; monomer to dimer.

By stoichiometry N is commonly meant the number of molecules, sites or subunits per partner or assembly. Regarding B1, the “stoichiometry N” value in data set [1] was 2 and 4. With B2, the binding result in data set [1] is recorded as “binds”. On to B3, for which, in data set [1], the binding result is “binds”. Regarding B4, the binding result in data set [1] is reported as “binds”. Same read-out and setting: to B5 belongs “binds”. For the molecule B6, the “stoichiometry N” value in data set [2] was found to be 2.

Regarding B7, the binding result in data set [3] and in data set [4] was “binds” each time. B8: in data set [5], the “stoichiometry N” value was 4 and 8. For the molecule B9, the binding result in data set [6] is given as “binds”. Same read-out and setting: under B10 stands “binds”; under B11, “binds”; under B12, “binds”. B13: the binding result in data set [6] was “binds”. The same measure, in the same setting: to B14 belongs “binds”. As a reminder, the Kd is the concentration at which binding is half-saturated. Low values mean tighter binding, high ones weaker binding. The molecule B15 came in with a dissociation constant Kd in data set [7] of 33.4 ± 5 µM.
